This note sets out measurements from patent US20120065123A1 (published 2012).

Usually Kd stands for the equilibrium constant for the complex coming apart. The koff is a measure of how fast the partners let go of each other. Lower therefore signals slow dissociation.

Where no end group is shown, it is not given here.

One assay deals with AKT1 (Homo sapiens (Human), UniProt P31749 1-480). Nature of the assay: SPR.
For the next assay, the target named is T1, transferrin.
T1 construct: Alexa 555 labelled on arrays, amine-coupled to the chip in SPR, on beads in mRNA display; also called TRF; transferring
Nature of the assay: SPR.

For the next assay, the target named is T2, ANXA1 (human, UniProt P04083).
T2 construct: GST fusion, feature of the Invitrogen Protoarray Human Protein Microarray v; 4.0
T2 sequence (array feature, looked up): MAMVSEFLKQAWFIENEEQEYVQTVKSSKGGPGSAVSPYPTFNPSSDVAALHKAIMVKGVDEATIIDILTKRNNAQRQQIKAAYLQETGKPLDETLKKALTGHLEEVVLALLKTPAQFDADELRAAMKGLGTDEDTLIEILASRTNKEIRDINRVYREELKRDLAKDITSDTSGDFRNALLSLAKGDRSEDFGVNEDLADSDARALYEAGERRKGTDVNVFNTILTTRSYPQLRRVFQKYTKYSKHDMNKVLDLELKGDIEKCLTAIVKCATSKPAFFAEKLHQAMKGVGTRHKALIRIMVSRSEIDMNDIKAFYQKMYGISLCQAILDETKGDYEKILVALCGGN
Nature of the assay: Invitrogen Protoarray Human Protein Microarray v. 4.0; biotinylated synbody detected with fluorescently labelled streptavidin; fluorescence intensity above background. The protocol:
(§1) Application of the synbodies to the microarray was performed in accordance with manufacturer instructions: (see ProtoArray Human Protein Microarray, Invitrogen, Catalog no. PAH052401, Version B, 15 Dec. 2006, 25-0970, Users Manual.) After blocking the array with 1% BSA/PBS/0.1% Tween for 1 hour at 4C with gentle shaking, 120 μl of probing buffer (1×PBS, 5 mM mgCl2, 0.5 mM DTT, 0.05% Triton X-100, 5% glycerol, 1% BSA) with synbody was applied to the array. The prescribed cover slip was placed over the array and adjusted to remove air bubbles. The array was incubated in a 50 ml conical tube, printed side up, for 1.5 hours at 4C without shaking. The array was then removed from the conical tube inserted diagonally into the array chamber, kept on ice. 8 ml probing buffer was added to the chamber wall. The cover slip was removed and the array was incubated in probing buffer for 1 minute on ice. The probing buffer was decanted and drained. Two further washings were performed adding 8 ml probing buffer, incubating on ice for 1 minute, and decanting and draining. 5 nM fluorescently labeled streptavidin diluted in 6 ml probing buffer was incubated on the array for 30 minutes on ice in the dark, after which the solution was decanted and drained. Three wash steps were performed, each by adding 8 ml probing buffer, incubating for 1 minute on ice, decanting, and draining. The array was removed from the chamber, centrifuged at 800×g for 5 minutes at room temperature. The array was dried in the dark for 60 minutes at room temperature, after which it was scanned using a fluorescent microarray scanner and data was taken and analyzed.

The next assay deals with T3, ACTC (human, UniProt P68032).
T3 construct: GST fusion, feature of the Invitrogen Protoarray Human Protein Microarray v; 4.0
The assay is described as above. The protocol: as §1

For a further assay, the target named is T4, PTK2 (human, UniProt Q05397).
T4 construct: GST fusion, feature of the Invitrogen Protoarray Human Protein Microarray v; 4.0
The assay is described as above. The protocol: as §1

The target of another assay is T5, LACRT (human, UniProt Q9GZZ8).
T5 construct: GST fusion, feature of the Invitrogen Protoarray Human Protein Microarray v; 4.0
T5 sequence (array feature, looked up): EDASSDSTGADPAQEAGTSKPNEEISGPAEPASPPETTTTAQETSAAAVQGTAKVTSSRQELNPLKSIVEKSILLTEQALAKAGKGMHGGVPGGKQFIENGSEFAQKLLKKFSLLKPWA
Described as above. The method, then: as §1

Another assay concerns the target T6, CHAF1B (human, UniProt Q13112).
T6 construct: GST fusion, feature of the Invitrogen Protoarray Human Protein Microarray v; 4.0
The description is as above. The method, then: as §1

Another assay deals with T7, ROCK2 (human, UniProt O75116).
T7 construct: GST fusion, feature of the Invitrogen Protoarray Human Protein Microarray v; 4.0
The assay is described as above. The method, then: as §1

The target of assay [1] is T8, Tumor Necrosis Factor-alpha (TNF-α).
T8 construct: also called TNF-a
Nature of the assay: SPR equilibrium, Biacore A100, TNF-α captured on chip. The protocol: Point-mutant libraries were prepared in 96-well stock plates From the stock plate, peptides were diluted to 50 μM concentration in Biacore HBS-EP buffer (GE Healthcare, Piscataway, N.J.) containing 1 mg/ml carboxymethyl-dextran (Sigma-Aldrich, St. Louis, Mo.) to reduce non-specific binding to the CM-5 SPR chip surface. […] Spot 3 contained only immobilized neutravidin and served as a reference spot.
Purified point-mutant affinities were measured on the Biacore A100 using SPR equilibrium binding response across a series of peptide concentrations on an SPR chip with TNF-α captured as described above.
For orientation: In SPR one partner is held on a chip, and binding of the other changes the refractive index at the surface.

For assay [2] the target is unchanged. The assay can be described thus: SPR kinetic fits of sensorgrams.
Assay [3] concerns the target T9, Gal80 (UniProt P04387 1-435, limits assumed).
T9 construct: Cy3/Cy5 or otherwise fluorescently labelled on arrays; immobilised in SPR and ELISA
T9 sequence (looked up): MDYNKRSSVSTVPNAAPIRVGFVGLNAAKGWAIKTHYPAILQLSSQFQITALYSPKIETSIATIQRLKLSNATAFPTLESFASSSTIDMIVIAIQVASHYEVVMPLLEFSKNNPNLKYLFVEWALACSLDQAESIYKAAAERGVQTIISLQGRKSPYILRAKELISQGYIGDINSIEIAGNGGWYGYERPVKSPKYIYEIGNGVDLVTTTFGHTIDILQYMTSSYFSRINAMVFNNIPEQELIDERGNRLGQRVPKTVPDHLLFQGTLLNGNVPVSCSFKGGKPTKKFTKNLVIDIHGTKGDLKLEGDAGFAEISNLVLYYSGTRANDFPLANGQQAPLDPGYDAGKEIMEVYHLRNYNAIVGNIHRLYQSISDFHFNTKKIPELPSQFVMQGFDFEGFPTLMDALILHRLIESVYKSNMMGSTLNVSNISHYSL
Nature of the assay: gel shift assay; gel shift assay. For orientation: Mobility shift assays separate free from complexed probe on a gel.

Assay [4] addresses T9, Gal80. Nature of the assay: SPR, synbody in solution, surface-bound Gal80; SPR, synbody in solution, surface-bound Gal80.
Assay [5] has as its target T10, pooled human transferrin (Sigma), biotinylated (human, UniProt P02787 20-698, biotinylated at amines with NHS-LC-LC-Biotin).
T10 construct: Captured on Neutravidin on a CM5 chip (Biacore A-100)
The assay can be described thus: SPR Biacore A-100, purified peptide at several concentrations. The source says: A Biacore A-100 Surface Plasmon Resonance (SPR) system was used to measure the binding response of each peptide to several different target proteins immobilized on a gold surface. The A-100 has four different flow cells and within each flow cell are five addressable spots. Therefore four different proteins and a negative control reference can be used per flow cell. Depending on the purpose of the assay, up to 16 different target proteins can be immobilized on a single SPR chip. The instrument is equipped to evaluate up to 10 384-well plates unattended and can process approximately four 384-well plates per day. Sensorgrams are collected from each immobilized protein, so a binding profile for each analyte versus each of the protein targets is generated for each injection. Target proteins were immobilized using a biotin capture approach in which a CM5 chip was activated using standard amine coupling chemistry and Neutravidin was covalently coupled to the chip. Each biotinylated protein was injected over a single spot and the amount of protein captured was measured.

T8 sequence (P01375 77-233): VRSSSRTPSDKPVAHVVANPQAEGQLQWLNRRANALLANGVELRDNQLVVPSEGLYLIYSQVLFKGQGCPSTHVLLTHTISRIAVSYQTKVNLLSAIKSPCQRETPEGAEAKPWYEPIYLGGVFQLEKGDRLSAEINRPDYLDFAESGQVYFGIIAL
T1 sequence (P02787 20-698): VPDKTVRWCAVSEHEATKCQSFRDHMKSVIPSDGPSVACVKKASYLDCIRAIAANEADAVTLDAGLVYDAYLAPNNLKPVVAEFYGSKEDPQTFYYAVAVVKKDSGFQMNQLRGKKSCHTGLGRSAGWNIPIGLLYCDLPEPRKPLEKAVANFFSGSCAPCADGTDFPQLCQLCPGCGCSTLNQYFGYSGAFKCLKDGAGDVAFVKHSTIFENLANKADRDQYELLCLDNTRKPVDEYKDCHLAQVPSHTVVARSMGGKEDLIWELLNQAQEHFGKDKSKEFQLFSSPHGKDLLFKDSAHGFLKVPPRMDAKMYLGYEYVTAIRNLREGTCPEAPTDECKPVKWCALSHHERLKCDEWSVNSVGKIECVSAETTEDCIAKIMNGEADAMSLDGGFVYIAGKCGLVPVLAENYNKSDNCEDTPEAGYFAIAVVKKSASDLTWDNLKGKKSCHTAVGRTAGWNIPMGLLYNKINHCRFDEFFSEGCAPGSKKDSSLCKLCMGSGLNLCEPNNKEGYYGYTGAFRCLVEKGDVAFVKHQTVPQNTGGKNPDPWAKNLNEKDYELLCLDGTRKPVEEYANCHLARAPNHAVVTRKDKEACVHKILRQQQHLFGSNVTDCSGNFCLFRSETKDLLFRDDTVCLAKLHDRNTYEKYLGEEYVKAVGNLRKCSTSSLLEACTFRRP
T10 sequence (P02787 20-698 limits assumed): as the sequence (P02787 20-698) above
T6 sequence (Q13112 whole entry, the tested form may be a part): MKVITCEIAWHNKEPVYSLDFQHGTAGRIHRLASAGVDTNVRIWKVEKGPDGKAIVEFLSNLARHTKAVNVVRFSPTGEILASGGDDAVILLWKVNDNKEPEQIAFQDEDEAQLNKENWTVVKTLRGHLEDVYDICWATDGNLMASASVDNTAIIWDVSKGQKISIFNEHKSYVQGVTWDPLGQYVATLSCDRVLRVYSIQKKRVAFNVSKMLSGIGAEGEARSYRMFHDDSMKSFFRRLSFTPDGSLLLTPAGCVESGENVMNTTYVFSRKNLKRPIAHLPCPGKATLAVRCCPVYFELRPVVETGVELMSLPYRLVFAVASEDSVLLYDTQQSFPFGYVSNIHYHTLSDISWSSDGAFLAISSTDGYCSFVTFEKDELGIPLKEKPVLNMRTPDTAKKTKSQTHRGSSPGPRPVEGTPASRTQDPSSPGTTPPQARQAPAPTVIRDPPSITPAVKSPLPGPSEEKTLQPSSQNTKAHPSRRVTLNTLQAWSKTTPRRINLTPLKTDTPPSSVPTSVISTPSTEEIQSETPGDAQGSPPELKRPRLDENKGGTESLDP
T4 sequence (Q05397 whole entry, the tested form may be a part): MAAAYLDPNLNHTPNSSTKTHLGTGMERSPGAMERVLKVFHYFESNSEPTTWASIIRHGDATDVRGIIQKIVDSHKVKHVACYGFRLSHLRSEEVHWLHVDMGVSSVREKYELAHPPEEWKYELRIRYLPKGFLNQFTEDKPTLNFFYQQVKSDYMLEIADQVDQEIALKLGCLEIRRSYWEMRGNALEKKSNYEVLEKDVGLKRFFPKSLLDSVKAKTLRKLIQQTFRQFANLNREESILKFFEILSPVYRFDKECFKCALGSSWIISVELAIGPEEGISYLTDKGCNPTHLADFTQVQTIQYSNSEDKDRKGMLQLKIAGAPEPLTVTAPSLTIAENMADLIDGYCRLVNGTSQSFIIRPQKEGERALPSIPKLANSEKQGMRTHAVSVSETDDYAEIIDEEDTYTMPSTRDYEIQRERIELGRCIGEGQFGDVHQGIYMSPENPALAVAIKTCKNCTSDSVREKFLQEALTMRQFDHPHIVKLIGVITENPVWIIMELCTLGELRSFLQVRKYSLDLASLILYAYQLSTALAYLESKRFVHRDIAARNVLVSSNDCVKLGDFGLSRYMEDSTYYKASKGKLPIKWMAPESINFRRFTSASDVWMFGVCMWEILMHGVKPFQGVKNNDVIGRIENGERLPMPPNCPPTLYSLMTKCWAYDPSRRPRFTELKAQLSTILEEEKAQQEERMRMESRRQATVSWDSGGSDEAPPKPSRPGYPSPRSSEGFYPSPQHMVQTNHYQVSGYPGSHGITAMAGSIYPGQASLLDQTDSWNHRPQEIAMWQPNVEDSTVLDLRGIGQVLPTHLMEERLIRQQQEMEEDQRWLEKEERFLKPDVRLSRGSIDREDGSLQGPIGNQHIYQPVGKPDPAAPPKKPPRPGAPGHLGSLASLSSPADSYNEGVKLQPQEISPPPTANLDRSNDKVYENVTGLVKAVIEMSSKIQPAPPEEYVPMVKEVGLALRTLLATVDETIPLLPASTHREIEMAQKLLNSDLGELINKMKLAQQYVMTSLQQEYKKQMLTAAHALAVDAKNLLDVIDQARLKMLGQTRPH
Sequence of AKT1 (P31749 whole entry): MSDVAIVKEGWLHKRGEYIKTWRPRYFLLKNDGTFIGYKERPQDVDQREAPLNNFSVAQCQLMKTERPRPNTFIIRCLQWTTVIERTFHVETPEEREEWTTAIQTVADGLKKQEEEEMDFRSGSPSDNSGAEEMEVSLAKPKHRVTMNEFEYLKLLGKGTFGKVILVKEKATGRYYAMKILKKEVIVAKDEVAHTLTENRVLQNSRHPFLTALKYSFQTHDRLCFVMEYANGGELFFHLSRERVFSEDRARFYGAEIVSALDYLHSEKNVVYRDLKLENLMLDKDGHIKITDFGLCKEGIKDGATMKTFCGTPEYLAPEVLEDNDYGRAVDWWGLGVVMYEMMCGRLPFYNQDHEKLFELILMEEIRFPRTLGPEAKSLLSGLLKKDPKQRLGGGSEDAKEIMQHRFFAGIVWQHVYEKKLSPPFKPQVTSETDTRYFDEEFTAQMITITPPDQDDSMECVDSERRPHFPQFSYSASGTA
T7 sequence (O75116 1-552 limits assumed): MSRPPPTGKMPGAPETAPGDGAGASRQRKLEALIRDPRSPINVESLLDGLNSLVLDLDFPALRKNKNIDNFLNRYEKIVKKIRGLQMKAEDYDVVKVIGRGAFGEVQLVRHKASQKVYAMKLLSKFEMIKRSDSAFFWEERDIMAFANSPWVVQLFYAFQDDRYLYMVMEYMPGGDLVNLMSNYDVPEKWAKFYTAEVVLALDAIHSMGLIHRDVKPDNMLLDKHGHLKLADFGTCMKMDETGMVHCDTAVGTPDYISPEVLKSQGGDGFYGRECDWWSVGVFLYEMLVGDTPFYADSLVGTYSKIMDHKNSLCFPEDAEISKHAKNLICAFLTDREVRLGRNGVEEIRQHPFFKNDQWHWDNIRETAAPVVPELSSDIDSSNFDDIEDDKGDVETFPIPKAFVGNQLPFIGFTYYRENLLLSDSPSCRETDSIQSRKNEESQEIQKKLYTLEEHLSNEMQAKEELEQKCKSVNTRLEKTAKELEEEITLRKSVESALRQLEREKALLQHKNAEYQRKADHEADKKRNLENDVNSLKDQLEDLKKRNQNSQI

B1: SYN23-26 (designed binder)
peptide 1: FRGWAHIFFGPHVIYRGGSG
peptide 2: AHKVVPQRQIRHAYNRYGSG
modifications: also: linker at chain A 20 at chain B 20 to a chain's C-terminus via Lys-Cys(biotin)
notes: Two 20-mers on the alpha and epsilon amines of a lysine, about 1 nm apart; thiol of the cysteine biotinylated for array detection; also called biotinylated anti-TRF synbody
Consider B1, for which the Kd with AKT1 was around 1 nM; in the assay with transferrin it was around 141 nM. In addition, the binding result with ANXA1 was “binds”; in the assay with ACTC, “binds”; with PTK2 it was “no binding”; in the assay with LACRT, “no binding”; in the assay with CHAF1B it was “binds”; with ROCK2, “no binding”.
Consider FERDPLMMPWSFLQSRQGSC [TNF1 lead peptide], for which, in [1], the affinity, expressed as Kd, was 160000 nM. Also, the koff in [2] amounted to 1.6 s⁻¹.

B2: linker-optimized BP1/BP2 DNA-linked synbody (BP1 on the template strand, BP2 at position 13 from the 3' end of the variable strand) (designed binder)
peptide 1: GTEKGTSGWLKTGSC
peptide 2: EGEWTEGKLSLRGSC
modifications: not fully specified (some residues, bridges); also: two DNA strands, each joined to a peptide C-terminal Cys through SMCC, double-stranded DNA linker
notes: Two peptides held by a double-stranded DNA linker; for ELISA a third psoralen-crosslinked strand carried biotin and streptavidin-HRP; also called gal80 synbody; the linker-optimized synbody
Regarding B2, the results for the Kd with Gal80 [3] and with Gal80 [4] were around 100 nM and 91 nM, respectively.

B3: TRF101 (peptide)
peptide: ARDLLIQKNSGQDVDHRGSC
notes: Screened unpurified, then resynthesised and HPLC purified for the KD
For the molecule B3, the Kd in [5] stood at 78900 nM.
